The record followed here is patent US6001353A, “20α-alpha-hydroxy steroid dehydrogenase related material and methods” (priority 1997, dated 1999).

In one series the test system is 20α-HSD mRNA. In words: Northern blot of corpus luteum 20α-HSD mRNA in hypophysectomized pregnant rats. Type of series: in vivo, rat. As to conditions: rats hypophysectomized day 3, 125 μg twice daily, tissue on day 7. Here is the method: For these studies, Holtzman pregnant rats were hypophysectomized on day 3 and treated with either prolactin (NIADDK oPRL-18, 125 μg, twice daily) or with vehicle (control). On day 7, corpus luteum and various other tissues (brain, decidua, ovary, and uterus) were obtained for analysis.
Total RNA from the harvested tissues was isolated by the method of Chomzynski and Sacchi [Anal. Biochem. 162:156-159 (1984)] and equal aliquots (20 μg) were electrophoresized and transferred to nylon membranes, or slot blotted onto Genescreen (DuPont, Wilmington, Del.) membrane. RNA was prehybridized for 16 hours at 42° C. in 40% formamide, 6×SSC, 5×Denhardt's, 20 mM NaH2 PO4, 0.2% SDS and 100 μg/ml salmon sperm DNA. Hybridization was completed in the same solution with the addition of ^32 P-labeled rat 20α-HSD cDNA (10^6 cpm/ml) at 42° C. for 12-16 hours. Blots were washed twice in 05.×SSC and 0.1% SDS (15 minutes, room temperature), twice in 0.2×SSC and 0.1% SDS (15 minutes, 42° C.), twice in 0.2×SSC and 0.1% SDS (15 minutes, 56° C.) and twice in 01.×SSC and 0.1% SDS (15 minutes, 56° C.).

A further series concerns src kinase (p60^src). In words: In vitro kinase assay, phosphorylation of 20α-HSD by src kinase. Type of series: biochemical. The conditions noted are these: bacterially expressed enzyme. As to the method:
(§1) Purified recombinant 20α-HSD (of the bacterial expression system) was incubated with various protein kinases after an initial incubation with alkaline phosphatase (to ensure that the protein was in a non-phosphorylated state) and subsequently assayed for 20α-HSD activity.
(§2) More particularly, purified bacterially expressed recombinant 20α-HSDwas first incubated in […] Tris-HCl (pH 8), 1 mM MgCl2, 1 mg/ml BSA, 0.5 mM dithiothreitol, and 60 U alkaline phosphatase coupled to agarose beads for 30 min. at 30° C. After centrifugation, the supernatant containing 20α-HSD was used as a substrate in various in vitro kinase assays. The protein kinase A (PKA), protein kinase C (PKC) and insulin receptor-associated tyrosine kinase activities were measured as described previously [Raz et al., Biochem. J. 269:603-607 (1990), Azhar et al., Am J. Physiol, 260:E1-E7 (1991)]. src kinase (p60^src) activity was assayed as described by Simonson and Herman [Simonson et al., J. Biol Chem., 268:9347-9357 (1993)].

The test system of series [1] is Pregnant Sprague-Dawley rats. In words: Anti-reproductive effect in pregnant rats: serum progesterone (RIA) and termination of pregnancy. Type of series: in vivo, rat. Here is the method:
Pregnant Sprague-Dawley rats were treated with purified 20α-HSD produced by a bacterial expression system (see Example 1) to assess the effect of the enzyme on (1) progesterone levels and (2) the possible termination of pregnancy. More particularly, animals were divided into two treatment groups (7 rats per group: 6 receiving treatment, 1 control) and were injected (intraperitoneally) with the purified recombinant 20α-HSD and an eqimolar dose of NADPH. Injections were administered on day 8 of pregnancy and continued for 72 hours.
Group 1 received intraperitoneal injections of the purified 20α-HSD (167 μg with an equimolar dose of NADPH) every 4 hours, continuing for 72 hours. Group 2 received intraperitoneal injections of the purified 20α-HSD (250 μg with an equimolar dose of NADPH) every 6 hours, continuing for 72 hours. The control treatment groups received an equal amount of GST alone with an eqimolar dose of NADPH. Blood samples were collected every 12 hours via jugular veins. Serum progesterone levels were determined by standard radioimmunoassay techniques [Gibori et al., Endocrinology 100:1483-1495 (1977)].

The subject of the next series is purified rat liver PKC. Put plainly: In vitro kinase assay, phosphorylation of 20α-HSD by PKC. Type of series: biochemical. As to conditions: bacterially expressed enzyme, [γ-32P]ATP. Here is the method: as §1
as §2, with “(1993)]. […]” for “(1993)].”

The nature of series [2]: Cyclooxygenase assay: conversion of [3H]arachidonic acid. Type of series: biochemical. As to conditions: purified preparations from either expression system. As to the method: (§3) To test for prostaglandin endoperoxide synthase type catalytic activity of recombinant 20α-HSD, both cyclooxygenase activity (which converts arachidonic acid into the hydroperoxide, PGG2) and peroxidase activity (which reduces PGG2 and other hydroperoxides to the corresponding alcohol, such as PGH2) were measured. The cyclooxygenase assay was performed by following the conversion of [^3 H] arachidonic acid [Dupont-New England Nuclear Research Products, Boston, Mass.] to [^3 H]PHG2 and [^3 H]PHE2 [Mitchell et al. Proc. Natl. Acad. Sci. USA 90:11693-11697, 1994]. Peroxidase activity was measured by monitoring the oxidation of N,N,N',N', tetramethyl-p-phenylenediamine at 611 nm [Iwata et al., Arch. Biochem. Biophys. 282:70-77 (1990)].

The test system of the next series is protein kinase A (PKA). In words: In vitro kinase assay, phosphorylation of 20α-HSD by PKA. Type of series: biochemical. The conditions noted are these: bacterially expressed enzyme, [γ-32P]ATP. Here is the method: as §1
as §2, with “(1993)]. […]” for “(1993)].”

Series [3] deals with insulin receptor-associated tyrosine kinase. Put plainly: In vitro kinase assay, phosphorylation of 20α-HSD by insulin receptor tyrosine kinase. The conditions noted are these: bacterially expressed enzyme. Type of series: biochemical. As to the method:
as §1, §2

The next series addresses T1, recombinant 20α-HSD (Rattus norvegicus, UniProt P51652).
T1 sequence (P51652 1-323): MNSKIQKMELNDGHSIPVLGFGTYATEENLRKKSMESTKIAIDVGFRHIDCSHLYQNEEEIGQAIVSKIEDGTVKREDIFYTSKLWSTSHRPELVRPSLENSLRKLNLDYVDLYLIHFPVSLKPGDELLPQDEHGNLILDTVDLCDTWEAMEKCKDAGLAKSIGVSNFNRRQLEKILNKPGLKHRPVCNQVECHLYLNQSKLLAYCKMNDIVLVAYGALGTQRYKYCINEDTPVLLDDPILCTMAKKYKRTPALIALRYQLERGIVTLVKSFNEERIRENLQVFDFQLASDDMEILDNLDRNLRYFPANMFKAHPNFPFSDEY
Put plainly: Catalytic activity of phosphorylated versus non-phosphorylated 20α-HSD, radiochemical. Type of series: biochemical. Further details: a DNA fragment of 1.2 Kb containing the entire coding region of 20α-HSD; GST (removed with thrombin) (N, cleaved yes); made in house; host or cells: E. coli DH5α (pGEX-4T-2). As to the method:
Enzyme activity of the recombinant 20α-HSD was determined by the rate of conversion of [1-2^3 H]-20α-hydroxy-pregn-4-ene-3-one (20α-hydroxprogesterone) to [1,2^3 H]progesterone in the presence of NADPH as described by Jones & Hsueh [J. Biol. Chem. 256:1248-1254 (1981)]. Enzyme activity was measured in this manner due to the fact that in an in vitro setting the reaction may be reversed, i.e. conversion of 20α-hydroxyprogesterone to progesterone. The assay mixtures (0.05 ml) contained 100 μM [1,2^3 H]hydroxyprogesterone [Dupont-New England Nuclear Research Products, Boston Mass.] […] Following incubation at 37° C. for 30 minutes, the [^3 H]progesterone content of each sample was determined after isolation by thin layer chromatography isolation. One unit of enzyme activity is defined as that amount of enzyme catalyzing the formation of 1 nmol of [^3 H]progesterone/minute from [1,2^3 H]hydroxyprogesterone. Specific activity is expressed as units/min/mg protein. The protein concentration was determined by the Bradford method using bovine serum albumin [Sigma Chemical Co, St. Louis, Mo.] as the standard [Bradford, Anal. Biochem. 72:248-254 (1976)]. […] Acta. 799:51-58 (1984); Noda et al., Biochim Biophys. Acta. 1079:112-118 (1991)]. […]

Series [4] in a line: Peroxidase activity: oxidation of tetramethyl-p-phenylenediamine at 611 nm. Type of series: biochemical. The conditions noted are these: purified preparations from either expression system. Here is the method: as §3
[5] abbreviates: Group 1 protocol, laparoscopy at 72 hour end point.

B1: prolactin (protein, UniProt P01240 31-229, looked up)
Prolactin: TPVCPNGPGNCQVSLRDLFDRAVMVSHYIHNLSSEMFNEFDKRYAQGKGFITMALNSCHTSSLPTPEDKEQAQQTHHEVLMSLILGLLRSWNDPLYHLVTEVRGMKGVPDAILSRAIEIEEENKRLLEGMEMIFGQVIPGAKETEPYPVWSGLPSLQTKDEDARHSAFYNLLHCLRRDSSKIDTYLKLLNCRIIYNNNC
notes: prolactin (NIADDK oPRL-18)
B1: the “expression of 20α-HSD mRNA in corpora lutea” value in the series on 20α-HSD mRNA is listed as “markedly reduced”.

B2: 20α-hydroxysteroid dehydrogenase (protein)
chain: MNSKIQKMELNDGHSIPVLGFGTYATEENLRKKSMESTKIAIDVGFRHIDCSHLYQNEEEIGQAIVSKIEDGTVKREDIFYTSKLWSTSHRPELVRPSLENSLRKLNLDYVDLYLIHFPVSLKPGDELLPQDEHGNLILDTVDLCDTWEAMEKCKDAGLAKSIGVSNFNRRQLEKILNKPGLKHRPVCNQVECHLYLNQSKLLAYCKMNDIVLVAYGALGTQRYKYCINEDTPVLLDDPILCTMAKKYKRTPALIALRYQLERGIVTLVKSFNEERIRENLQVFDFQLASDDMEILDNLDRNLRYFPANMFKAHPNFPFSDEY
Regarding B2, the “phosphorylation of 20α-HSD by src kinase” value in the series with src kinase (p60^src) is on record as “failed to phosphorylate”. In [1] (Group 1: 167 μg i.p. every 4 hours), the “time to significant decline of serum progesterone levels” value was not above 48 h. In series [1] (setting [5]), the animals aborted totally was 5 animals and the animals partially aborting is listed as 2 animals. Besides, the “time to significant decline of serum progesterone levels” value in series [1] (Group 2: 250 μg i.p. every 6 hours) was 60 h. Moreover, the “time to termination of pregnancy” value in series [1] (pregnant rats, i.p. with equimolar NADPH from day 8 of pregnancy) is not above 72 h. Besides, in [1] (pregnant rats, i.p. with equimolar NADPH from day 8 of pregnancy, bacterially expressed enzyme), the circulating progesterone result is on record as “marked decrease”. Also, the “phosphorylation of 20α-HSD by PKC” value in the series with purified rat liver PKC is “readily phosphorylated”. Moreover, in series [2], the cyclooxygenase activity result is reported as “Neither peroxidase not cyclooxygenase activity was detected”. For the same molecule, the “phosphorylation of 20α-HSD by PKA” value in the series with protein kinase A (PKA) is “readily phosphorylated”. The “phosphorylation of 20α-HSD by insulin-receptor-associated tyrosine kinase” value in series [3] was “failed to phosphorylate”. Further, the “20α-HSD activity after phosphorylation with PKA” value with recombinant 20α-HSD is recorded as “not significantly affected”. Further, in the series with recombinant 20α-HSD (ATP-Mg2+, diacylglycerol, phosphatidylserine), the “20α-HSD activity after phosphorylation with PKC” value was “unaffected”. Moreover, the peroxidase activity entry in series [4] is reported as “Neither peroxidase not cyclooxygenase activity was detected”.
